Measurements as given in the supplement of paper PMC12764529.
± gives the half width of the 95% confidence interval.

Columns and labels:
[1] = folding stability dG unfold from trypsin proteolysis; higher = more stable
Procedure, shortened: (§1)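 Mini-proteins designed to be under 80 residues and free of cysteine were carried in a PA-tagged cDNA display construct and digested with trypsin and with chymotrypsin. Each protease was applied at 11 threefold-diluted concentrations, alongside a no-protease condition, before sequencing. K50 came from Bayesian fitting of the sequencing counts, and unfolding free energy was obtained by comparing it with a sequence-predicted unfolded-state K50 and a shared folded-state K50, for each protease separately or for both together. Designs were retained only if their AlphaFold2 dimer inter-PAE exceeded 15.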

[2] = folding stability dG unfold (combined trypsin and chymotrypsin); higher = more stable
Procedure, shortened: as §1

[3] = folding stability dG unfold from chymotrypsin proteolysis; higher = more stable
Procedure, shortened: as §1

Sequence	folding stability dG unfold [1] [kcal/mol]	folding stability dG unfold [2] [kcal/mol]	folding stability dG unfold [3] [kcal/mol]
SAGGSAGGSMSPEEARALAEALAEALGEPDVEVLEVVQTENPAADSTTVTVTIRLPDGSVRVLSAGGSAGGS [r12_508_JUSTAS]	1.63 ± 0.079	1.63 ± 0.06	1.481 ± 0.014
SAGGSAGGSMSPSESVTLTVVVEEITPGTPKVLLPEEVKEKYPNFEVQVKVEGKPATVTITRPSAGGSAGGS [r12_900_JUSTAS]	0.321 ± 0.021	0.385 ± 0.077	0.444 ± 0.017
SAGGSAGGSMTFSSEEEAEAFIAQLPPDSEVEVEIKDPNTDKTTKYKIKVPPEQPVYSPKGVLSAGGSAGGS [r12_393_JUSTAS]	0.308 ± 0.11	1.2 ± 0.14	1.5 ± 0.063
SAGGSAGGSMTILEEEVVPETGLVRILVKLPNGELLELEVDPSVGVTPVKVDGKPIFDVTVDPSAGGSAGGS [r12_789_JUSTAS]	0.898 ± 0.038	1.19 ± 0.11	1.3 ± 0.082
SAGGSAGGSMTKTITTKTEEEAESEARRLLKEEGVPEGVEPTPITLESVDPEKGLYTFTVELESAGGSAGGS [r12_999_JUSTAS]	0.2 ± 0.062	0.379 ± 0.076	0.395 ± 0.099
SAGGSAGGSMTLIGTTTLPSPDGSLVTVDTYKVPGSDELVAKVTTLNGTTWTTETRPLSEFLKSAGGSAGGS [r12_1063_JUSTAS]	0.188 ± 0.081	0.646 ± 0.1	0.913 ± 0.14
SAGGSAGGSMTLKVTLPNGKVIELPLPEELENIPAETIAKLLGEENVRLELYSPDGVPYDFGASAGGSAGGS [r12_411_TrMRF]	1.18 ± 0.029	1.03 ± 0.099	0.726 ± 0.09
SAGGSAGGSMTLVLEVDSVEDALAAVEALLPPGYRVTIEVEERGGRLLVTITIEPAPAPPPEESAGGSAGGS [r12_195_TrROS_Hall]	1.92 ± 0.083	3.16 ± 0.071	3.51 ± 0.075
SAGGSAGGSMTRTITLSKEELKKKYPNATLEEIAKDIIEKEPGVKEVTVEEFPGTVKITVTKLSAGGSAGGS [r12_590_JUSTAS]	2 ± 0.086	2.57 ± 0.18	2.84 ± 0.058
SAGGSAGGSMTVERNVTSEEEAEEWREEIEKELGVKVEEVIREETEEGDLRVKFVIEIPEDLKSAGGSAGGS [r12_577_JUSTAS]	0.37 ± 0.069	0.0537 ± 0.18	-0.367 ± 0.2
SAGGSAGGSMTVETTPLATSRDPESDNTVTLTRTTVTFPDGTVRTETWTVTTAPDGTTTTTVSSAGGSAGGS [r12_250_JUSTAS]	0.00376 ± 0.037	0.999 ± 0.049	1.35 ± 0.033
SAGGSAGGSMTVTVRRVYFPPNLAEGMTVEELRKKLGVPDLPVLVVDVEVTLTPEELEALLKESAGGSAGGS [r12_178_TrMRF]	1.39 ± 0.041	1.97 ± 0.05	2.21 ± 0.036
SAGGSAGGSMVEITFPPDLSEEEAEALAKELEEKYNKKVKITKVPPEIPVPLPQYDPTNWVEVSAGGSAGGS [r12_159_JUSTAS]	-0.0502 ± 0.06	-0.108 ± 0.2	-0.0306 ± 0.11
SAGGSAGGSMVFESTSVYTFPEQNTVVVTKTTTTVTKTPDGSSSVSTSTTTTVLTVPPPEPLVSAGGSAGGS [r12_277_JUSTAS]	2.64 ± 0.12	2.85 ± 0.3	3.64 ± 0.13
SAGGSAGGSMVKTFPESEPGERVTRELILTPDSIEIVETVVKTDPATGKPVEEVLLRRSTLPLSAGGSAGGS [r12_70_JUSTAS]	-0.747 ± 0.4	-0.353 ± 0.29	-0.315 ± 0.41
SAGGSAGGSMVKVEVTTTYDPSSNKTTVTTTTTLTEGGGTVLGTKTTTTTTTISPTTPVTSVTSAGGSAGGS [r12_254_JUSTAS]	0.604 ± 0.031	0.955 ± 0.042	1.17 ± 0.015
SAGGSAGGSMVYKVTVYIPESGETREFVDPGSEEEIKARVKELFPDPNVKVEITPIEASPELLSAGGSAGGS [r12_92_JUSTAS]	2.11 ± 0.042	1.82 ± 0.045	1.51 ± 0.051
